The text below walks through data of article PMC2923024.

Data set [1] deals with T1, KSRP (UniProt Q92945 1-711).
T1 sequence: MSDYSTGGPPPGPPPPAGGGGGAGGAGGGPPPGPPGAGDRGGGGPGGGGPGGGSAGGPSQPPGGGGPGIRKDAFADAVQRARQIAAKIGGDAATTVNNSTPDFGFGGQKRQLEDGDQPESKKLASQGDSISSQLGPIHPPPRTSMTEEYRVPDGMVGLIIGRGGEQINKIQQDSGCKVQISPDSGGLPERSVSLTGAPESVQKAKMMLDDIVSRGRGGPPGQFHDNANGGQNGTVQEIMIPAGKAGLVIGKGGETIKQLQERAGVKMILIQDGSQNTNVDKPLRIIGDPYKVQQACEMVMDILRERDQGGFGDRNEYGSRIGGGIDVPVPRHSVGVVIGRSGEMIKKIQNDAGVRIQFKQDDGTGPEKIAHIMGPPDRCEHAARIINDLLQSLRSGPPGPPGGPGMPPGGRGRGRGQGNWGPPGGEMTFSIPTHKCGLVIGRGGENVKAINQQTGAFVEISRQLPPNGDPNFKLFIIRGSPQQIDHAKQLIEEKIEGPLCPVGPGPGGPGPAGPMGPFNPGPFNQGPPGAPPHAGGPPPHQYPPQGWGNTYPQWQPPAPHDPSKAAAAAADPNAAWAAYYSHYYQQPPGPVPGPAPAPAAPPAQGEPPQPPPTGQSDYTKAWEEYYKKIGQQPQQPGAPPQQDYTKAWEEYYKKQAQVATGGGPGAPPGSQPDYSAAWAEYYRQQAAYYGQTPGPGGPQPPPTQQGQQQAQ
The data set is described as follows: competition.

Data set [2] deals with hnRNP A1 UP1 fragment (UniProt P09651 1-196). Put plainly: competition.
Sequence of hnRNP A1 UP1 fragment (P09651 1-196): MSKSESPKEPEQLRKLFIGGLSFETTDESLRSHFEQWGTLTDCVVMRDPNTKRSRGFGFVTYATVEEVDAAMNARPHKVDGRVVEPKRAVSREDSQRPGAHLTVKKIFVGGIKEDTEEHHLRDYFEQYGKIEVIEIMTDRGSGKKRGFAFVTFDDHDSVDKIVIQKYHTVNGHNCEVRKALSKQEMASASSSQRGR

For GUUGUAUAGUUUUAGGGUCACACCCACCACUGGGAGAUAACUAUACAAUC (structured_RNA) [let-7a-1 loop], the binding result in data set [1] and in data set [2] was “binds” in each case.
